Measured values from article doi:10.1101/2020.11.18.388926.

Biological target: T1, Fur (Pseudomonas aeruginosa, UniProt Q03456 1-134)
T1 sequence: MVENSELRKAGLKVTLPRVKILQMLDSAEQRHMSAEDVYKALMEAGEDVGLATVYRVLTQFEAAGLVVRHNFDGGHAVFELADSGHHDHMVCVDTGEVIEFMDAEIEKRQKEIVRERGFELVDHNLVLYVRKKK
Experiment: fluorescence anisotropy

B1: prrF1-30 (dsDNA)
DNA 1: GACATGGAAATGAGAATCATTATTATGTC
DNA 2: GACATAATAATGATTCTCATTTCCATGTC
Q: With B1 as the binder, how does the Kd read?
A: Its Kd is 50 ± 10 nM.
